Assay results: paper PMC4452343, “Monitoring β-arrestin recruitment via β-lactamase enzyme fragment complementation: purification of peptide E as a low-affinity ligand for mammalian bombesin receptors” (PLoS ONE, 2015)

What was measured:
[1] = biological target: T1, human bombesin receptor subtype 3 (human, UniProt P32247 1-399); assay: radioligand binding; competition; 5 μg membrane fraction of CHO-hBRS3 cells with 0.1 nM radioligand and various concentrations of competitor, 2 h at room temperature, 50mM Tris-HCl (pH7.5), 5mM MgCl2; bound ligand separated on a GF/C filter; conditions: one partner purified
T1 construct: bombesin receptor subtype 3 (BRS3), human; expressed in CHO cells, no reporter fragment named; In the radioligand assay the receptor stood in membrane fractions of the cells; in the calcium and NFAT-luciferase assays on whole cells; also called hBRS3; CHO-hBRS3; source: CHO cells stably expressing hBRS3
T1 sequence (looked up): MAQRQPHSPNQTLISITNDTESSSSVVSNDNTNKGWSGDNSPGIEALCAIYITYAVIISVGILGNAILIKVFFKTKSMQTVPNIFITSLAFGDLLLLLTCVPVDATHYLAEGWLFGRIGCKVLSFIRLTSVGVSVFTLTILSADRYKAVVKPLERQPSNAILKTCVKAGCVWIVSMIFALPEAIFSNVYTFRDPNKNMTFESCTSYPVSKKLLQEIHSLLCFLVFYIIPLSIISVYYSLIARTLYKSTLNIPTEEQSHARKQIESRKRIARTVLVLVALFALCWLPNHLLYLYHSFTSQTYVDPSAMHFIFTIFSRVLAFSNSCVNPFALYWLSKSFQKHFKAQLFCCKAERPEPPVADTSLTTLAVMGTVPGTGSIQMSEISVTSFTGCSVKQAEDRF

neuromedin B receptor = neuromedin B receptor (human, UniProt P28336 1-390); assay: cell-based or functional assay
[2] = biological target: gastrin-releasing peptide receptor (human, UniProt P30550 1-384); assay: cell-based or functional assay
[3] = biological target: T1, human bombesin receptor subtype 3; assay: cell-based or functional assay

gastrin-releasing peptide receptor, sequence (P30550 whole entry): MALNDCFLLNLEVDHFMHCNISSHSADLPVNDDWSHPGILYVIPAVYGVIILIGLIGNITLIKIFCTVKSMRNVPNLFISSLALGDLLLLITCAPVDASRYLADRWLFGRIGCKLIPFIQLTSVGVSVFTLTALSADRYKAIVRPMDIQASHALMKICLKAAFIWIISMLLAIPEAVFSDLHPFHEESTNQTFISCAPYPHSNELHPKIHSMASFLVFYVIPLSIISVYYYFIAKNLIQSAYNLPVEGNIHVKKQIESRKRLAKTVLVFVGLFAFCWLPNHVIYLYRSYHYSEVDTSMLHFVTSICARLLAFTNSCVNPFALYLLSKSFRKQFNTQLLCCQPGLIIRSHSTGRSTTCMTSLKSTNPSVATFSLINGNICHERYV
neuromedin B receptor, sequence (P28336 whole entry): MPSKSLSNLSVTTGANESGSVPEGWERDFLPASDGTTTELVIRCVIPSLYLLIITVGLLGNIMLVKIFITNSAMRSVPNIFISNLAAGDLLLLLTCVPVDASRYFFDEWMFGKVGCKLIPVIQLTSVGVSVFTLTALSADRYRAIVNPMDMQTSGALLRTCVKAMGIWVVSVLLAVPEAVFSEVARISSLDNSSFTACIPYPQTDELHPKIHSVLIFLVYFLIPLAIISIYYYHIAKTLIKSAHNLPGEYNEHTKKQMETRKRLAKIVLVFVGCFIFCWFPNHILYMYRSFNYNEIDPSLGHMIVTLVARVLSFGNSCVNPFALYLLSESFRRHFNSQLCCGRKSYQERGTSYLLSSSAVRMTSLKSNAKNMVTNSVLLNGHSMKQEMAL

B1: peptide E (peptide)
chain: YGGFMRRVGRPEWWMDYQKRYGGFL
notes: peptide E, a partially processed product of the opioid peptide precursor proenkephalin A; 25 residues; also called P2; synthetic peptide E; source: synthetic peptide (chemically synthesized)
IC50 [1]: 361 nM
EC50 of NFAT-luciferase reporter activation in CHO cells expressing hNMBR (neuromedin B receptor): 1100 nM
EC50 of NFAT-luciferase reporter activation in CHO cells expressing hGRPR [2]: 3500 nM
EC50 of NFAT-luciferase reporter activation in CHO cells expressing hBRS3 [3]: 500 nM
